Assay [1] deals with VCP (valosin-containing protein) (UniProt P55072). Briefly: Flag-FAF1 co-IP, immunoblot. As to conditions: reference: wild type; sites S582. On the technique in general: Immunoblotting shows a protein as a band on a membrane.
The target of assay [2] is TβRII (TGF-β type II receptor) (UniProt P37173). Description: Flag-FAF1 co-IP, immunoblot. As to conditions: reference: wild type; sites S582.

Turning to “FAF1 (FAS-associated factor 1) (from UniProt Q9UNN5) S582A”, the “binding against the reference” value in assay [1] and in assay [2] was “stronger” throughout.

Source of the values: publication PMC5414047.
